Data: patent US20220119541A1

Biological target: human GITR (full length, on cells) (human) (UniProt Q9Y5U5)
Experiment: FACS dot plot, spleen cells of GITR humanized (B-hGITR) mice, FITC against mTcRβ PerCP [panel hIgG1]

human GITR (full length, on cells) (human), sequence (Q9Y5U5 26-241): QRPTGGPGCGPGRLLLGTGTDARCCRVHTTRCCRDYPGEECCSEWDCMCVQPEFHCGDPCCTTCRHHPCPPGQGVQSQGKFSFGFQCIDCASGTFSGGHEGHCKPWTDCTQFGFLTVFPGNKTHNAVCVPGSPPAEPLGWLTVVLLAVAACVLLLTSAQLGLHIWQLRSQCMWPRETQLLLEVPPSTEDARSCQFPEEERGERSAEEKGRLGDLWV

isotype control IgG (antibody)
FL3-H, FL1-H subset (percent of cells in the FITC-high, mTcRβ-positive gate): 1.08%
